Holding throughout (details): both partners purified
Assay [1] has as its target T1, amyloid-β (1–42) (UniProt P05067 672-713).
T1 construct: also called Aβ42; Aβ (1–42); source: bought: Bachem (Bubendorf, Switzerland); suspended in HFIP, lyophilized
Put plainly: SPR; Biacore T200; CDP-1 immobilised by amine coupling (1916.5 RU); Aβ42 as analyte 1.85 to 0.02 μM; 10 mM HEPES + 50 mM NaCl + 0.05% Tween 20, 25 °C; multicycle; methods: 1:1 kinetic fit with global Rmax (the table's head says steady-state fitting). A general note: In SPR one partner is held on a chip, and binding of the other changes the refractive index at the surface.

The target of assay [2] is T1, amyloid-β (1–42). Put plainly: SPR; Biacore T200; Aβ42 immobilised on a CM-5 chip by amine coupling (900 RU); peptides as analytes 50 to 0.02 μM; 10 mM HEPES + 50 mM NaCl + 0.05% Tween 20, 25 °C, 30 μL/min; multicycle; steady-state affinity model.
In assay [3] the target is T1, amyloid-β (1–42). Described as above. This is another data set of the same source.

No end group written: not given here.

B1: crotamine derivative peptide CDP-1 (peptide)
peptide: KMDCRWRWKCCKK
modifications: acetylated at the N-terminus; methylated at the C-terminus
notes: crotamine of Crotalus durissus terrificus venom, Lys27 to Lys39; […]; L-amino acids; For SPR this peptide was immobilised by amine coupling (1916.5 RU); also called crotamine (Lys27–Lys39); mother L-peptide CDP-1; source: synthetic peptide (Genscript, purity >95%)
Broadly, the Kd is the equilibrium constant for the complex coming apart. In the case of B1, in the assay with amyloid-β (1–42) [1], the dissociation constant Kd was found to be 0.41 µM.

B2: crotamine derivative peptide CDP-6 (peptide)
peptide: Ac-KMDSRWRWKCSKK
modifications: not fully specified (C-terminus); also: methylated at the C-terminus
notes: positions worked out from Lys27–Lys39; […]; L-amino acids; source: synthetic peptide (Genscript, purity >95%)
On to B2, for which, in the assay with amyloid-β (1–42) [2], the Kd worked out at 26.4 µM.

B3: crotamine derivative peptide CDP-2 (peptide)
peptide: Ac-KMDSRWRWKSSKK
modifications: not fully specified (C-terminus); also: methylated at the C-terminus
notes: […]; L-amino acids; source: synthetic peptide (Genscript, purity >95%)
For the molecule B3, the Kd with amyloid-β (1–42) [3] was found to be 3.25 µM.

For the origin of these results see PMC11258689, “A Snake Venom Peptide and Its Derivatives Prevent Aβ42 Aggregation and Eliminate Toxic Aβ42 Aggregates In Vitro” (ACS Chemical Neuroscience, 2024).
